The text below walks through data of US11407840B2, “Antibodies to M(H)DM2/4 and their use in diagnosing and treating cancer” (NomoCan Pharmaceuticals LLC, priority 2017, dated 2022).

The target in experiment [1] is T1, recombinant full-length HDM2 protein (GST tagged) (Homo sapiens, UniProt Q00987).
T1 construct: reacted with the recombinant full-length HDM2 protein; purchased Abcam ab188727
The experiment can be described thus: Western blot (immunoblot). It counts as binding. As to conditions: 1 μg/well protein; band at approximately 83 kD; FIG. 2. As to the method: Western Blot: As for immunoblots, 1 μg/well of recombinant FIDM2 protein (GST tagged, Abeam, Cat. No. ab188727) was separated on 8-16% sodium dodecyl sulfate (SDS) polyacrylamide gel and proteins were then transferred to polyvinylidene difluoride (PVDF) membrane. The membrane was blocked with 5% milk followed by incubation with monoclonal antibody NMC-103, NMC-204 or NMC-303 at 1 μg/πι ? in 1% milk in PBS for 2 hours. The membrane was then washed×3 times (10 minutes each) and incubated for 1 hour with corresponding HRP-conjugated secondary antibody (Goat anti-Mouse IgG (H&L), F(ab′)2 Frag Cross-adsorbed HRP (HRP-GaM F(ab′)2), ThermoFisher, Cat. No. A24524) diluted 1:5000 in 1% BSA-PBS. The membrane was then washed×3 times and incubated with Pierce ECL Plus Western Blotting Substrate (ThermoFisher, Cat. No. #32132) for 10 min before developing on a LICOR Scanner.
In general terms: In western blotting, separated proteins are transferred to a membrane and probed.

The subject of experiment [2] is human pancreatic cancer MIA PaCa-2 cells. The experiment can be described thus: Cell-ELISA, intact cells. It counts as binding. As to conditions: for binding to intact, EDTA-released MiaPaCa-2 cells, cell-ELISA: EDTA 10 mmols, pH 7.2, 5 min, 37° C., FIG. 10; for binding to intact MIA PaCa-2 cells when competed with NMC-P2 peptide / binding to intact MIA PaCa-2 cells when competed with soluble NMC-P1 peptide: FIG. 8; for relative binding (reactivity) to intact cells, cell-ELISA: MIA PaCa-2, mAb 1 μg/mL, FIGS. 3-5. How it is done: (§1) Cell-ELISA Methodology: 8,000-10,000 cells/well of a 96-well microplate were grown overnight. The next day, unbound cells were washed off with sterile 1× PBS. The cells in each well were fixed with freshly prepared 4% buffered paraformaldehyde (pH 7.2) for 1 hour followed by 3 washes with 1× PBS. The wells were then blocked with 5% BSA in PBS (100 ? /well) for 2 hours at room temperature. Microplate wells were then washed 5 times with 300 ? of ice cold 1× PBS. MAbs NMC-103, NMC-204 or NMC-303 at 1 μg/mL in 1% BSA/PBS were then incubated with various cancer or normal untransformed cells for 2 hours at room temperature. Wells were then washed with 300 ? of ice-cold 1× PBS for 5 times and corresponding secondary antibody HRP-GaM F(ab′)2 diluted 1:2500 or 1:5000 in PBS with 1% BSA were added at 100 ? /well for 1 hour at room temperature followed by washing 5 times with 300 ? of ice-cold 1× PBS. TMB Substrate Solution (1-StepTM Ultra TMB-ELISA, ThermoFisher, Cat. No. 34028) was then added at 50 ? ? to each microplate well and incubated at room temperature for 30 minutes. The reaction was stopped by addition of 50 μL, of stop solution (ThermoFisher, Cat. No. SSO4) to each well and absorbance of each well was measured at OD450 nm. The absorbance value of each experimental well was corrected for the absorbance value obtained from wells treated with isotype-identical mAbs included in each experiment. The results are thus expressed as “relative binding”.
(In an ELISA, binding on a coated surface is turned into a signal by an enzyme label.)

Experiment [3] deals with normal human peripheral blood mononuclear cells (PBMCs). The experiment can be described thus: Cell-ELISA, intact normal cells. It counts as binding. As to conditions: freshly isolated PBMCs; FIG. 6. How it is done: as §1
Experiment [4] deals with mouse colon cancer MC-38 cells (subcutaneous tumors). The experiment can be described thus: MC-38 syngeneic mouse model of colon cancer. As to conditions: for reduction in tumor volume versus control: FIG. 23. It counts as in vivo, mouse (C57BL/6). How it is done: Methodology used (Syngeneic Mouse Models of lung, colon and pancreatic cancer): To investigate the anti-tumor effects of HDM2-specific antibodies on lung, colon and pancreatic tumors in vivo, three well-known syngeneic mouse models of lung, colon and pancreatic cancer were used (Sharma et al, 1999, J. Immunol. 163 (9):5020-5028; McIntyre, 2015, Bioassays 37(8):909-920; Li, et al, 2015, Sci. Rep. 5:7856). Subcutaneous tumors were prepared by implanting either mouse Lewis Lung cancer LL/2 cells (2.5×10^5 cells/mouse), mouse colon cancer MC-38 cells (5×10^5 cells/mouse) or mouse pancreatic cancer Panc-2 cells (2×10^6 cells/mouse) in the right flanks of 8-week-old female C57BL/6 mice (n=6-7). The mice were returned to their respective cages after tumor implantation. From day 7 after tumor implantation, the tumor volumes were measured 2 times/week with a digital caliper. In the case of MC-38 and Panc-2 study, treatment started when the tumors reached an average of 70-80 mm^3. In the case of LL/2 study, tumor cell inoculation and treatment were initiated simultaneously. Mice were micro-chipped and registered following tumor implantation. Tumor volume measurements and body weights were recorded and mice were randomized into groups that received: A) mAb NMC-103 at 0.4 mg/kg (3 times a week for 3 weeks), 2 mg/kg (2 times a week for 3 weeks), or 4 mg/kg (2 times a week for 3 weeks); B) NMC-204 at 0.4 mg/kg (3 times a week for 3 weeks); C) isotype control mouse IgG1 (Abeam, Cat. No. ab 18447) or IgG3 (Abeam, Cat. No. ab 18392) at 0.4 mg/kg (3 times a week for 3 weeks) or 4 mg/kg (2 times a week for 3 weeks); D) Gemcitabine (25 mg/kg) and nab-paclitaxel (5 mg/kg) 2 times a week for 3 weeks; or E) a combination of gemcitabine (25 mg/kg), nab-paclitaxel (5 mg/kg) and mAb NMC-103 (2 mg/kg; 2 times a week for 3 weeks) or (10 mg/kg; 2 times a week for 2 weeks). All tumors were injected subcutaneously and all treatments were performed by intraperitoneal injection. Any mouse displaying prolonged adverse clinical signs, or with body weight loss exceeding 15% relative to body weight at day 0, was euthanized. Tumor measurements from post-treatment with HDM2-specific antibodies versus isotype control mouse antibodies versus standard of care treatment (gemcitabine and nab-paclitaxel) were made, and results are presented in FIGS. 16-19.
To further evaluate the NMC-103 dose-dependent anti-tumor effect, in a separate study, the MC-38 syngeneic tumor in mice (n=5) was re-established and treatment carried out similarly to the study of FIG. 17 with the following modification: increase of antibody concentration from 0.4 mg/kg to 10 mg/kg.

Setting [5] is: 0.4 mg/kg i.p. 3 times a week for 3 weeks.

T1 sequence (Q00987 whole entry): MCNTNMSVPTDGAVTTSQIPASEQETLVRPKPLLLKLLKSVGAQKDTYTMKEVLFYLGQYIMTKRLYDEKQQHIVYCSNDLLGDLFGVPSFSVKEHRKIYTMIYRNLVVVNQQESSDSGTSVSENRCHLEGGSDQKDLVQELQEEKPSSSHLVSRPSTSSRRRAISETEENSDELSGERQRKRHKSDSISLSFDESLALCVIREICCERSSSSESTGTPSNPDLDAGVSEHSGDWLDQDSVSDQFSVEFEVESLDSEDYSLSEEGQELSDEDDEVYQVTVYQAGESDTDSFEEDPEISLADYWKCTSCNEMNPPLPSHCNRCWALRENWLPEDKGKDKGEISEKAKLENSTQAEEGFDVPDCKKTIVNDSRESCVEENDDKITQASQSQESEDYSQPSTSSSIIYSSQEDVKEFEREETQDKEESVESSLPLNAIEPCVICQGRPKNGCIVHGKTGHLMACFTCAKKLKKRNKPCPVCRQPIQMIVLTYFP

B1: NMC-103: mouse monoclonal antibody, IgG1 isotype, binds NMC-P1 (SEQ ID NO:1); VH SEQ ID NO:36, VL SEQ ID NO:37 (antibody, V domains shown)
VH: EVQLQESGGGLVQPGGSLRLSCTTSGFTFTHYYMSWVRQPPGKALEWLGFIRNKAKGYTAEYSASVKGRFTISRDNSQSILYLQMNTLRPEDSATYYCARDIGDNWGQGTLVTVSS
VL: DIVMTQAAFSNPVTLGTSASISCRSSKNLLHSNGITYLYWYLQRPGQSPQLLISRVSNLASGVPNRFSGSESGTDFTLRISRVEAEDVGVYFCAQLLELPYTFGGGTKLEIK
modifications: mAb NMC-103 Heavy Chain Variable Region; mAb NMC-103 Light Chain Variable Region
Turning to B1, in experiment [1], the “reactivity with recombinant full-length HDM2-GST protein in immunoblot” value was “reacted”. Moreover, in experiment [2], the “binding to intact, EDTA-released MiaPaCa-2 cells, cell-ELISA” value is “bound”; the “binding to intact MIA PaCa-2 cells when competed with NMC-P2 peptide” value is recorded as “did not have any effect”; the “binding to intact MIA PaCa-2 cells when competed with soluble NMC-P1 peptide” value is reported as “completely abolished”; the “relative binding (reactivity) to intact cells, cell-ELISA” value is listed as “reactivity”. Moreover, the “binding to intact MIA PaCa-2 cells after pre-incubation with full-length recombinant HDM2” value in experiment [2] (FIG. 9) is “reduced”. Also, the “binding to intact normal human PBMCs, cell-ELISA” value in experiment [3] is given as “virtually no binding”. Further, in experiment [4] (setting [5]), the “reduction in tumor volume versus control” value is reported as “significant (p<0.005) reduction in tumor volume”. Besides, the “tumor cells stained positive for Ki67 (immunohistochemistry)” value in experiment [4] (NMC-103 study, 0.4 mg/kg, FIG. 17B) worked out at 5%. Further, the average tumor size in experiment [4] (day 12, 10 mg/kg, 2 times per week for 2 weeks, n=5, FIG. 31) was determined as 210 mm^3. Further, the tumor volume in experiment [4] (treated for 18 days, 0.4 mg/kg i.p. 3 times a week for 2.5 weeks, FIG. 17A) is listed as 1268 mm^3.

B2: NMC-204: mouse monoclonal antibody, IgG3 isotype, binds NMC-P2 (SEQ ID NO:2); VH SEQ ID NO:38, VL SEQ ID NO:39 (antibody, V domains shown)
VH: EVQLQESGSVLVRPGASVKLSCKASGDTLSGSWMHWAMQRPGQGLEWIGEIHLNRGTTNYNEKFKGKATVTVDTSSSTAYVDLSSLTSEDSAVYYCARSPGFAYWGQGTLVTVSA
VL: GIVMTQAAPSVPVTPGESVSISCRSSKSLLHSNGNSYLYWFLQRPGQSPQLLIYRMSNLASGVPDRFSGSGSGTAFTLRITRVEAEDVGVYYCMQHLEYPFTFGSGTKLEIK
modifications: mAb NMC-204 Heavy Chain Variable Region; mAb NMC-204 Light Chain Variable Region
As to B2, the “reactivity with recombinant full-length HDM2-GST protein in immunoblot” value in experiment [1] is recorded as “reacted”. Further, in experiment [2], the “binding to intact, EDTA-released MiaPaCa-2 cells, cell-ELISA” value is “bound”; the “binding to intact MIA PaCa-2 cells when competed with NMC-P2 peptide” value was “competed”; the “binding to intact MIA PaCa-2 cells when competed with soluble NMC-P1 peptide” value is listed as “not with NMC-P1”; the “relative binding (reactivity) to intact cells, cell-ELISA” value is reported as “reactivity”. In experiment [3], the “binding to intact normal human PBMCs, cell-ELISA” value is given as “did not react”. Besides, the tumor volume in experiment [4] (0.4 mg/kg i.p. 3 times a week for 3 weeks, FIG. 18A) is reported as 1670 mm^3. Also, the “reduction in tumor volume versus control” value in experiment [4] (setting [5]) is “significant (p<0.005) reduction in tumor volume”. For the same molecule, in experiment [4] (NMC-204 study, 0.4 mg/kg, FIG. 18B), the “tumor cells stained positively for Ki67” value came to 30%.
